Experimental data reported in patent publication US11584938B2, “Plant EPSPS mutant containing L195P and S247G mutations and encoding gene and use thereof” (GEVOTO LLC, priority 2017, dated 2023).
Positions count from the first letter of the chain named.

B1: G0: wild-type soybean EPSPS, amino acid sequence SEQ ID NO: 2; control (protein)
chain: MAAAEKPSTAPEIVLEPIKDISGTITLPGSKSLSNRILLLAALSEGTTVVDNLLYSEDIHYMLGALRTLGLRVEDDQTTKQAIVEGCGGLFPTIKESKDEINLFLGNAGTAMRPLTAAVVAAGGNASYVLDGVPRMRERPIGDLVAGLKQLGADVDCFLGTNCPPVRVNGKGGLPGGKVKLSGSVSSQYLTALLMAAPLALGDVEIEIVDKLISVPYVEMTLKLMERFGVSVEHSGDWDKFLVHGGQKYKSPGNAFVEGDASSASYFLAGAAVTGGTITVNGCGTSSLQGDVKFAEVLEKMGAKVTWSENSVTVTGPPQDSSGQKVLQGIDVNMNKMPDVAMTLAVVALFANGQTTIRDVASWRVKETERMIAICTELRKLGATVEEGPDYCVITPPEKLNVTAIDTYDDHRMAMAFSLAACGDVPVTIKDPGCTRKTFPDYFEVLERFTRH
modifications: Glycine max
notes: control
B2: G1: soybean EPSPS mutant, SEQ ID NO: 4, mutation L212(195)P (protein)
chain: B1 chain with L212P
B3: G3: soybean EPSPS mutant, SEQ ID NO: 8, mutations L212(195)P and P114(101)S (protein)
chain: B1 chain with P114S, L212P
B4: G2: soybean EPSPS mutant, SEQ ID NO: 6, merely containing the mutation P114(101)S; control (protein)
chain: B1 chain with P114S

System: transgenic rice plants
Assay: glyphosate resistance of the EPSPS mutant in transgenic rice plants sprayed with Roundup 41% ammonium glyphosate
Format: in vivo, rice (Nipponbare)
Conditions: 1× dosage 1060 g/hectare glyphosate sprayed; recorded on 10th day
Text: A method for detecting the glyphosate resistance of G1 (SEQ ID NO: 4) provided in Example 1, G3 (SEQ ID NO: 8) provided in Example 2, G4 (SEQ ID NO: 10) provided in Example 3, the soybean EPSPS mutant G5 (SEQ ID NO: 12) provided in Example 4, T1 (SEQ ID NO: 16) provided in Example 5, T3 (SEQ ID NO: 20) provided in Example 6, T4 (SEQ ID NO: 22) provided in Example 7, T5 (SEQ ID NO: 24) provided in Example 8, the wheat EPSPS mutant T6 (SEQ ID NO: 26) provided in Example 9, R1 (SEQ ID NO: 30) provided in Example 10, R3 (SEQ ID NO: 34) provided in Example 11, R4 (SEQ ID NO: 36) provided in Example 12, R5 (SEQ ID NO: 38) provided in Example 13, and the rice EPSPS mutant R6 (SEQ ID NO: 40) provided in Example 14 in the transgenic rice is as follows:
The plasmids (containing the EPSPS mutation gene) of the monoclonal resistant bacteria of pADV5-EPSPS in Examples 1-7 were extracted by a conventional method, followed by double enzyme digestion by Pac1 and BstEII, the small fragments were collected, and then the small fragments were ligated by using T4 DNA ligase, to the pGVP1 vectors that had undergone the same double enzyme digestion, to obtain a pGVP1-EPSPS vector having a structure as shown in FIG. 23.
EHA105 (Agrobacterium tumefaciens) competent cells were transformed by the pGVP1-EPSPS vector, and single colonies were picked up to perform bacterial colony PCR detection to identify positive strains; then the positive strains were inoculated into 1 mL of YEP culture medium containing 50 μg·mL^−1 kanamycin and 50 μg·mL^−1 rifampin to propagate, and then preserved at −80° C., or used for subsequent experiment.
400 μl of bacterium containing the target gene vector preserved at −80° C. was added to a culture dish of solid culture media containing YEP+50 μg/mL rifampin+50 μg/mL kanamycin, and cultured in the dark at 28° C. for 24 hours, then this bacterium was added to an infection culture medium, and this bacterial solution was adjusted to OD=0.2 as an infection liquid.
Sterilization and pre-culturing: mature rice (Nipponbare) seeds were manually shelled, and full seeds without bacterial plaque were selected, and sterilized according to following steps: putting the seeds into a 50 ml sterile centrifuge tube, adding 70% alcohol for disinfection for 30 seconds, pouring out the alcohol, and cleaning the seeds once with sterile water; adding 10-20 ml of 2.6% sodium hypochlorite solution for soaking and sterilizing for 20 minutes, pouring out the sodium hypochlorite solution, and soaking and cleaning the seeds with sterile water for 6-7 times, 3 minutes each time.
Induction and subculturing: the seeds were put on sterile filter paper for drying, and mature embryos were put in an induction culture medium with 12 embryos in each dish; the culture dishes were sealed with a sealing film after the operation was finished, the mature embryos were cultured in the dark at 30° C. for 21-28 days, calluses were transferred into a fresh culture medium, and continuously cultured for about 7-14 days, and spherical calluses with a size of 1-2 mm were taken as infection receptors.
the calluses were inoculated into a centrifuge tube or a culture cup, the prepared Agrobacterium tumefaciens suspension liquid was added for infection for 10 minutes, wherein the calluses were shaken several times; the bacterial solution was poured out, the calluses were taken out, and placed on sterile filter paper to suck out the surface bacterial solution (about 30 minutes); and the calluses were put on sterile filter paper in a culture dish, and cultured in the dark at 25° C. for 2-3 days.
Recovery culturing: the calluses having undergone co-culturing were inoculated in a recovery culture medium, and cultured in the dark at 30° C. for 5-7 days. First round of screening: the calluses were transferred to screening culture media 1 (S1) and cultured in the dark at 30° C. for 14 days. […]

Molecule | %++&+++ (percentage of plant having medium and high glyphosate resistance to the total number of plants observed) | number of plants denoted by + (low glyphosate resistance) | number of plants denoted by ++ (medium glyphosate resistance) | number of plants denoted by +++ (high glyphosate resistance) | number of plants denoted by − (no glyphosate resistance)
B1 | 0.0% | 0 | 0 | 0 | 36
B2 | 16.7% | 20 | 4 | 2 | 10
B3 | 57.9% | 25 | 37 | 7 | 7
B4 | 47.1% | 6 | 5 | 3 | 3

Same assay, conditions: 1× glyphosate dosage

Molecule | glyphosate resistance / survival of the rice transformed by the EPSPS, in words
B1 | had no resistance and died
B2 | obviously superior to that of the rice seedlings transformed by G0
B3 | had certain resistance to glyphosate
B4 | had certain resistance to glyphosate

Same assay, conditions: 2× dosage 2120 g/hectare sprayed to plants surviving 1×; recorded 10 days later

Molecule | %++&+++ (percentage of plant having medium and high glyphosate resistance to the total number of plants observed) | number of plants denoted by + (low glyphosate resistance) | number of plants denoted by ++ (medium glyphosate resistance) | number of plants denoted by +++ (high glyphosate resistance) | number of plants denoted by − (no glyphosate resistance)
B1 | 0.0% | 0 | 0 | 0 | 36
B2 | 0.0% | 19 | 0 | 0 | 17
B3 | 0.0% | 66 | 0 | 0 | 10
B4 | 0.0% | 0 | 0 | 0 | 17

Same assay, conditions: 2× glyphosate dosage

Molecule | glyphosate resistance / survival of the rice transformed by the EPSPS, in words
B3 | some of the rice seedlings containing the soybean EPSPS mutants G3 and G5 still survived
B4 | all rice seedlings containing the soybean EPSPS mutant G2 died

Same assay, conditions: 5× dosage 5300 g/hectare sprayed to plants surviving 2×; recorded 10 days later

Molecule | &++&+++ (percentage of plant having medium and high glyphosate resistance to the total number of plants observed) | number of plants denoted by + (low glyphosate resistance) | number of plants denoted by ++ (medium glyphosate resistance) | number of plants denoted by +++ (high glyphosate resistance) | number of plants denoted by − (no glyphosate resistance)
B1 | 0.0% | 0 | 0 | 0 | 36
B2 | 0.0% | 5 | 0 | 0 | 31
B3 | 0.0% | 46 | 0 | 0 | 30
B4 | 0.0% | 0 | 0 | 0 | 17

Same assay, conditions: 5× glyphosate dosage

Molecule | glyphosate resistance / survival of the rice transformed by the EPSPS, in words
B3 | some of the rice seedlings containing the soybean EPSPS mutants G3 and G5 still survived
B4 | all rice seedlings containing the soybean EPSPS mutant G2 died

Same assay, conditions: 20× dosage 21200 g/hectare sprayed to plants surviving 5×; recorded 10 days later

Molecule | &++&+++ (percentage of plant having medium and high glyphosate resistance to the total number of plants observed) | number of plants denoted by + (low glyphosate resistance) | number of plants denoted by ++ (medium glyphosate resistance) | number of plants denoted by +++ (high glyphosate resistance) | number of plants denoted by − (no glyphosate resistance)
B1 | 0.0% | 0 | 0 | 0 | 36
B2 | 0.0% | 0 | 0 | 0 | 36
B3 | 0.0% | 8 | 0 | 0 | 68
B4 | 0.0% | 0 | 0 | 0 | 17

Same assay, conditions: 20× glyphosate dosage

Molecule | glyphosate resistance / survival of the rice transformed by the EPSPS, in words
B3 | some of the rice seedlings containing the soybean EPSPS mutants G3 and G5 still survived
B4 | all rice seedlings containing the soybean EPSPS mutant G2 died
